Measurements published in paper PMC5159498.

Experiments:
CDC42 Q61L (human) [1] = molecular target: CDC42 Q61L (human) (UniProt P60953); experiment: fluorescence polarisation; GRD1-CT (0-2.5 μM) or GRD2 (0-7.5 μM) titrated to tGppNHp-bound CDC42 Q61L (1 μM); 30 mM Tris/HCl pH 7.5, 150 mM NaCl, 5 mM MgCl2, 3 mM DTT, 25 °C
CDC42 Q61L (human) [2] = molecular target: CDC42 Q61L (human) (UniProt P60953); experiment: fluorescence polarisation; IQGAP1 variant titrated to mGppNHp-bound RHO protein (1 μM); equilibrium Kd (eKd), quadratic fit; 30 mM Tris/HCl pH 7.5, 150 mM NaCl, 5 mM MgCl2, 3 mM DTT, 25 °C
CDC42 Q61L (human) [3] = molecular target: CDC42 Q61L (human) (UniProt P60953); experiment: stopped-flow fluorometry; tGppNHp (tamra-GppNHp)-bound CDC42 or CDC42 Q61L (0.2 μM) rapidly mixed with IQGAP1 variant (2-10 μM GRD1-CT for Q61L); Kd = koff/kon; 30 mM Tris-HCl pH 7.5, 10 mM KH2PO4/K2HPO4, 5 mM MgCl2, 3 mM DTT
RAC1 (aa 1-179) (human) = RAC1 (aa 1-179) (human) (UniProt P63000); experiment: fluorescence polarisation; IQGAP1 variant titrated to mGppNHp-bound RHO protein (1 μM); equilibrium Kd (eKd), quadratic fit; 30 mM Tris/HCl pH 7.5, 150 mM NaCl, 5 mM MgCl2, 3 mM DTT, 25 °C
CDC42 (aa 1-178) (human) [4] = molecular target: CDC42 (aa 1-178) (human) (UniProt P60953); experiment: as above
Sequence of CDC42 (aa 1-178) (human) (P60953 1-178): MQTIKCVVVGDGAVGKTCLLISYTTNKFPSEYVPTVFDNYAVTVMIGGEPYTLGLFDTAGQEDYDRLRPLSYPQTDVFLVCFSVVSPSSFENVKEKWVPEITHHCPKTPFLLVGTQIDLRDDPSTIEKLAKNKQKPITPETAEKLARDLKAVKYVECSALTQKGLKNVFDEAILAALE

CDC42 (aa 1-178) (human) [5] = molecular target: CDC42 (aa 1-178) (human) (UniProt P60953); experiment: fluorescence polarisation; IQGAP1 variant titrated to mGDP-bound (inactive) RHO protein (1 μM), same conditions as with mGppNHp; 30 mM Tris/HCl pH 7.5, 150 mM NaCl, 5 mM MgCl2, 3 mM DTT, 25 °C

Sequence of IQGAP1 GRD1-CT (aa 863-1657) (P46940 863-1657): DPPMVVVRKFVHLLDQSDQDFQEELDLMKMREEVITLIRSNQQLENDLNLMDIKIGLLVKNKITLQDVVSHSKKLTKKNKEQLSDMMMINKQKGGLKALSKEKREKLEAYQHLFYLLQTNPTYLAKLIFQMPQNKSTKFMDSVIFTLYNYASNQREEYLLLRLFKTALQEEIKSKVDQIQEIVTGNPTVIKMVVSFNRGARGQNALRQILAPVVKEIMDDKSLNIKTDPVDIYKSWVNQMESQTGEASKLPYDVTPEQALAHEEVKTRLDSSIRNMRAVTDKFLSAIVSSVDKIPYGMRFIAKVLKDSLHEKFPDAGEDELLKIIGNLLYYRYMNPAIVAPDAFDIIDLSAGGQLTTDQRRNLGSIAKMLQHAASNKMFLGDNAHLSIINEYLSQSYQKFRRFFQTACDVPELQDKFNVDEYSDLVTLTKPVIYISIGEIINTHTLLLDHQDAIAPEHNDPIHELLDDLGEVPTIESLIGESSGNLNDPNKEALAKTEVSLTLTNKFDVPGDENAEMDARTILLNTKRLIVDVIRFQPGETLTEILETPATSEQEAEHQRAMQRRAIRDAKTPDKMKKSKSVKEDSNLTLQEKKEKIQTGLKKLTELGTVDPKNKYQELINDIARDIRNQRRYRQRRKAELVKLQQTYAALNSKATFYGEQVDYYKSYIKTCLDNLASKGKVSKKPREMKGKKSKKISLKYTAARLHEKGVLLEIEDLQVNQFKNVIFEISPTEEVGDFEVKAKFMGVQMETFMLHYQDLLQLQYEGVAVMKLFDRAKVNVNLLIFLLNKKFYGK
Sequence of IQGAP1 GRD2 (aa 962-1345) (P46940 962-1345): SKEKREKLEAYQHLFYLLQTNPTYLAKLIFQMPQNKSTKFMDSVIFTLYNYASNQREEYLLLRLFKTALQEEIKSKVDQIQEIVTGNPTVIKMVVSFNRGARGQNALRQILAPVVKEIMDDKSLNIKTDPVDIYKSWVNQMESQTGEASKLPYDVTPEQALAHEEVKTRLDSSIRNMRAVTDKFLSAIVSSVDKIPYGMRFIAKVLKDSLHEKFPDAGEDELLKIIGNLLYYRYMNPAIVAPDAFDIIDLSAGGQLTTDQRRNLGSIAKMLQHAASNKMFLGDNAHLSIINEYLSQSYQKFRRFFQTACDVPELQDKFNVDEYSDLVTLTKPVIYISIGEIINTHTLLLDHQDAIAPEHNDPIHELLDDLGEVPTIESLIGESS

Kd (CDC42 Q61L (human) [1])	Kd (CDC42 Q61L (human) [2])	Kd (CDC42 Q61L (human) [3])	Kd (RAC1 (aa 1-179) (human))	Kd (CDC42 (aa 1-178) (human) [4])	Kd (CDC42 (aa 1-178) (human) [5])	Substance
0.52 µM	0.83 µM	0.05 µM	–	–	–	IQGAP1 GRD1-CT (aa 863-1657) (from UniProt P46940 863-1657) (domain or fragment)
1.13 µM	2.37 µM	–	81.5 µM	30.2 µM	185 µM	IQGAP1 GRD2 (aa 962-1345) (from UniProt P46940 962-1345) (domain or fragment)
